The values below come from patent publication US20160264634A1.

One assay deals with mKv1.3 channel (mouse) (UniProt P16390). As to the kind of experiment: cell-based or functional assay.
A further assay concerns the target mKv1.1 channel (mouse) (UniProt P16388). As to the kind of experiment: cell-based or functional assay.

Sequence of mKv1.3 channel (mouse) (P16390 whole entry): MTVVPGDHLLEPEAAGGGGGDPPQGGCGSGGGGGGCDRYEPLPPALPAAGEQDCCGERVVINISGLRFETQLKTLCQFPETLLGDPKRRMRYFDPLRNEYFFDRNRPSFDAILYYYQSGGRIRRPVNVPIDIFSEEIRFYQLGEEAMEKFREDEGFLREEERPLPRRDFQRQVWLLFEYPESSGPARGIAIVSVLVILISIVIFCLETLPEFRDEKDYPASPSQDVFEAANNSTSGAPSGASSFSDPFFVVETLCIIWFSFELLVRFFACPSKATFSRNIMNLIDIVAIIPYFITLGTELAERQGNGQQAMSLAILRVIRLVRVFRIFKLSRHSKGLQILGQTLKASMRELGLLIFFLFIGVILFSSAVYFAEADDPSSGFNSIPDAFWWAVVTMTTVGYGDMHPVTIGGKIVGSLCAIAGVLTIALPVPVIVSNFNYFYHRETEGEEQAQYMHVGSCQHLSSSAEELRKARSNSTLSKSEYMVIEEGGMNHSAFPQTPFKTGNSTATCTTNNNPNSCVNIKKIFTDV
Sequence of ShK (P29187 whole entry): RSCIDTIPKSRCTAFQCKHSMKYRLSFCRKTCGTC
Sequence of mKv1.1 channel (mouse) (P16388 whole entry): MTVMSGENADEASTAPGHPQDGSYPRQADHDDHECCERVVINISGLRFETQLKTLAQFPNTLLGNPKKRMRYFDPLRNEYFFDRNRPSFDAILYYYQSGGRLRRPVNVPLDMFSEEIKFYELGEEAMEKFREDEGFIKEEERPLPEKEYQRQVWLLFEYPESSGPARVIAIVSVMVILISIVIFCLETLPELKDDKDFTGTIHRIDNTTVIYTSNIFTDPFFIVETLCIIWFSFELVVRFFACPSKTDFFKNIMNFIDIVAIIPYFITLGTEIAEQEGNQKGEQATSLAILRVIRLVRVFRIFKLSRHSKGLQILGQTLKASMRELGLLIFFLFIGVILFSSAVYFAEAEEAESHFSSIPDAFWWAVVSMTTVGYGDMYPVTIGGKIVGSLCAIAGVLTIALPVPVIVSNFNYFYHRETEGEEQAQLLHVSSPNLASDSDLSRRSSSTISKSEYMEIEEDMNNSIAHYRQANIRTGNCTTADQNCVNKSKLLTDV
Sequence of ShK-K-amide (P29187 whole entry): as the sequence (P29187 whole entry) above

For “ShK (from UniProt P29187 1-35) (peptide)”, the IC50 of current block, whole-cell patch-clamp was determined as 9 pM in the assay with mKv1.3 channel (mouse) and 23 pM with mKv1.1 channel (mouse). The substance “ShK-K-amide (from UniProt P29187 1-35) (peptide)” showed an IC50 of current block, whole-cell patch-clamp with mKv1.3 channel (mouse) of 26 pM. For the substance “ShK-amide (from UniProt P29187 1-35) (peptide)”, the IC50 of current block, whole-cell patch-clamp amounted to 35 pM with mKv1.3 channel (mouse) and 37 pM with mKv1.1 channel (mouse).
